Measurements reported in patent publication US20220193132A1 (NATIONAL RESEARCH COUNCIL OF CANADA, published 2022).

Key:
[1] = target: T1, EGFRvIII amino acid residues 15 to 37 with Lys37 to Ala mutation (human); assay: yeast display flow cytometry, Myc-normalized;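 also: Anti-EGFRvIII monoclonal antibodies tested by flow cytometry on yeast displaying alanine-substituted fragments, two-color indirect fluorescence with anti-Myc signal tracking fusion protein expression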
T1 construct: mutation is already in the entry
T1 peptide: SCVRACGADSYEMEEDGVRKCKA
From the text: (§1) Assessment of the binding of anti-EGFRvIII mAbs to the fusion proteins expressed on yeast cell surface was done by flow cytometry analysis. Briefly, yeast cells were labeled with both the anti-hEGFRvIII mAb and chicken anti-Myc antibody, the latter being used to monitor the level of expression of the fusion protein. Following a wash step, binding of the primary antibodies is probed by a two-color indirect fluorescence labeling using secondary antibodies specific for mouse and chicken antibodies, respectively.
(§2) To further characterize mAb epitopes within the EGFRvIII 15-37 region, an alanine scan of this region was performed, and modified fragments were expressed at the surface of the yeast. […] The resulting peptides were expressed at the surface of the yeast and each anti-EGFRvIII mAbs was tested on the corresponding yeast mutant strain by flow cytometry analysis. Thus, this assay determined the contribution of each amino acid(s) in the monoclonal antibody binding.

[2] = target: T2, EGFRvIII amino acid residues 15 to 37 with Cys16 to Ala mutation (human); assay: yeast display flow cytometry, Myc-normalized;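 also: Anti-EGFRvIII monoclonal antibodies tested by flow cytometry on yeast displaying alanine-substituted fragments, two-color indirect fluorescence with anti-Myc signal tracking fusion protein expression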
T2 construct: mutation is already in the entry
T2 peptide: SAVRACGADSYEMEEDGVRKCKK
From the text: as §1, §2

[3] = target: T3, EGFRvIII amino acid residues 15 to 37 with Val17 to Ala mutation (human); assay: yeast display flow cytometry, Myc-normalized;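 also: Anti-EGFRvIII monoclonal antibodies tested by flow cytometry on yeast displaying alanine-substituted fragments, two-color indirect fluorescence with anti-Myc signal tracking fusion protein expression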
T3 construct: mutation is already in the entry
T3 peptide: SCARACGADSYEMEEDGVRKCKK
From the text: as §1, §2

[4] = target: T4, EGFRvIII amino acid residues 15 to 37 with Glu28 to Ala mutation (human); assay: yeast display flow cytometry, Myc-normalized;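 also: Anti-EGFRvIII monoclonal antibodies tested by flow cytometry on yeast displaying alanine-substituted fragments, two-color indirect fluorescence with anti-Myc signal tracking fusion protein expression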
T4 construct: mutation is already in the entry
T4 peptide: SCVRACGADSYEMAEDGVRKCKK
From the text: as §1, §2

[5] = target: T5, EGFRvIII amino acid residues 15 to 37 with Lys36 to Ala mutation (human); assay: yeast display flow cytometry, Myc-normalized
T5 construct: mutation is already in the entry
T5 peptide: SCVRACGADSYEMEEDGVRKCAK
From the text: as §1, §2

[6] = target: T6, EGFRvIII amino acid residues 15 to 37 with Gly21 to Ala mutation (human); assay: yeast display flow cytometry, Myc-normalized
T6 construct: mutation is already in the entry
T6 peptide: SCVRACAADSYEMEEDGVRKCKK
From the text: as §1, §2

[7] = target: T7, EGFRvIII amino acid residues 15 to 37 with Val32 to Ala mutation (human); assay: yeast display flow cytometry, Myc-normalized
T7 construct: mutation is already in the entry
T7 peptide: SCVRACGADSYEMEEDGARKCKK
From the text: as §1, §2

[8] = target: T8, EGFRvIII amino acid residues 15 to 37 with Tyr25 to Ala mutation (human); assay: yeast display flow cytometry, Myc-normalized
T8 construct: mutation is already in the entry
T8 peptide: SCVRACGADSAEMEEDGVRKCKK
From the text: as §1, §2

[9] = target: T9, EGFRvIII amino acid residues 15 to 37 with Met27 to Ala mutation (human); assay: yeast display flow cytometry, Myc-normalized
T9 construct: mutation is already in the entry
T9 sequence (peptide, as listed by the source, change not shown): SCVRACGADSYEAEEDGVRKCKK
From the text: as §1, §2

[10] = target: T10, EGFRvIII amino acid residues 15 to 37 with Arg18 to Ala mutation (human); assay: yeast display flow cytometry, Myc-normalized
T10 construct: mutation is already in the entry
T10 peptide: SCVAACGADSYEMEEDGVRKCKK
From the text: as §1, §2

[11] = target: T11, EGFRvIII amino acid residues 15 to 37 with Lys34 to Ala mutation (human); assay: yeast display flow cytometry, Myc-normalized
T11 construct: mutation is already in the entry
T11 peptide: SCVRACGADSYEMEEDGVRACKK
From the text: as §1, §2

[12] = target: T12, EGFRvIII amino acid residues 15 to 37 with Asp23 to Ala mutation (human); assay: yeast display flow cytometry, Myc-normalized
T12 construct: mutation is already in the entry
T12 peptide: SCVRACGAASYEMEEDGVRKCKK
From the text: as §1, §2

[13] = target: T13, EGFRvIII amino acid residues 15 to 37 with Glu29 to Ala mutation (human); assay: yeast display flow cytometry, Myc-normalized
T13 construct: mutation is already in the entry
T13 peptide: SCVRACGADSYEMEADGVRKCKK
From the text: as §1, §2

[14] = target: T14, EGFRvIII amino acid residues 15 to 37 with Ser24 to Ala mutation (human); assay: yeast display flow cytometry, Myc-normalized
T14 construct: mutation is already in the entry
T14 peptide: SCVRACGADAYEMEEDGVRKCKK
From the text: as §1, §2

[15] = target: T15, EGFRvIII amino acid residues 15 to 37 with Ser15 to Ala mutation (human); assay: yeast display flow cytometry, Myc-normalized
T15 construct: mutation is already in the entry
T15 peptide: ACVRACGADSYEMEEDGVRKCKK
From the text: as §1, §2

[16] = target: wild type human EGFR, full length, overexpressed on U87MG cells (human, UniProt P00533 25-1210); assay: cell-based or functional assay
[17] = target: T16, EGFRvIII, full length, overexpressed on glioblastoma cells (human, UniProt P00533 298-623); assay: cell-based or functional assay
[18] = target: T17, recombinant human EGFRvIII protein (extracellular domain), denatured (human, UniProt P00533 298-623); assay: ELISA Exp 2, purified mAb 1 ug/ml;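 also: ELISA of purified mAb binding to plate-coated antigen, native or heat/DTT-denatured, with pNPP substrate developed for 30 min and incubations at room temperature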
T17 construct: Same protein as m21 after 95 C for 5 min in PBS with 40 mM DTT (denatured, reduced); also called EGFRvIII Denatured
Method: (§3) Pre- and post-immune sera titers of animals were assessed by ELISA on recombinant EGFRvIII protein. Unless otherwise stated, all incubations were performed at room temperature. […] Microplates were washed three times in PBS and blocked for 30 min with PBS containing 1% bovine serum albumin (BSA, Sigma Cat #A7030). Blocking buffer was removed and 25 μl of serial dilutions of sera samples were added. […] After a 1-h incubation, microplates were washed 4 times and 25 μl of p-nitrophenyl phosphate (pNPP) substrate (Sigma-Aldrich Canada Co., Oakville, ON) at 1 mg/ml in carbonate buffer at pH 9.6 was added and further incubated for 30 min.
(§4) Antigens at 1-2 mg/ml were incubated at 95° C. for 5 min in PBS containing DTT at a final concentration of 40 mM. They were then incubated on ice for 5 min and diluted at their final coating concentration for ELISA purpose.
(§5) ELISA was performed as described above (serum titer determination) using 25 μl of mAb supernatant (Exp 1) or purified mAb at 1 μg/ml (Exp 2).

[19] = target: T18, recombinant human wild type EGFR protein (extracellular domain), native (human, UniProt P00533 25-645); assay: ELISA Exp 2, purified mAb 1 ug/ml;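 also: ELISA of purified mAb binding to plate-coated antigen, native or heat/DTT-denatured, with pNPP substrate developed for 30 min and incubations at room temperature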
T18 construct: also called wt EGFR; EGFR WT
Method: as §3, §4, §5

[20] = target: T19, recombinant human EGFRvIII protein (extracellular domain), native (human, UniProt P00533 298-623); assay: ELISA Exp 2, purified mAb 1 ug/ml;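 also: ELISA of purified mAb binding to plate-coated antigen, native or heat/DTT-denatured, with pNPP substrate developed for 30 min and incubations at room temperature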
T19 construct: also called hEGFRvIII
Method: as §3, §4, §5

[21] = target: T20, recombinant human wild type EGFR protein (extracellular domain), denatured (human, UniProt P00533 25-645); assay: ELISA Exp 2, purified mAb 1 ug/ml;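 also: ELISA of purified mAb binding to plate-coated antigen, native or heat/DTT-denatured, with pNPP substrate developed for 30 min and incubations at room temperature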
T20 construct: Same protein as m23 after 95 C for 5 min in PBS with 40 mM DTT (denatured, reduced); also called wt EGFR Denatured
Method: as §3, §4, §5

[22] = target: T17, recombinant human EGFRvIII protein …; assay: ELISA Exp 1, mAb supernatant
Method: as §3, §4, §5

[23] = target: T18, recombinant human wild type EGFR …; assay: ELISA Exp 1, mAb supernatant
Method: as §3, §4, §5

[24] = target: T19, recombinant human EGFRvIII protein …; assay: ELISA Exp 1, mAb supernatant
Method: as §3, §4, §5

[25] = target: T20, recombinant human wild type EGFR …; assay: ELISA Exp 1, mAb supernatant
Method: as §3, §4, §5

[26] = target: T21, EGFRvIII fragment amino acid residues 19 to 37, displayed on yeast (human); assay: yeast surface display, flow cytometry
T21 construct: also called aa 19-37
T21 peptide: ACGADSYEMEEDGVRKCKK

[27] = target: T22, EGFRvIII amino acid residues 15 to 37 with Gly31 to Ala mutation (human); assay: yeast display flow cytometry, alanine scan
T22 construct: mutation is already in the entry
T22 peptide: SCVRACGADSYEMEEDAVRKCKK
From the text: as §1, §2

[28] = target: T23, EGFRvIII amino acid residues 15 to 37 with Cys20 to Ala mutation (human); assay: yeast display flow cytometry, alanine scan
T23 construct: mutation is already in the entry
T23 peptide: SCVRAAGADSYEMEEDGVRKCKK
From the text: as §1, §2

[29] = target: T24, EGFRvIII amino acid residues 15 to 37 with Cys35 to Ala mutation (human); assay: yeast display flow cytometry, alanine scan
T24 construct: mutation is already in the entry
T24 peptide: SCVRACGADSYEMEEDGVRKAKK
From the text: as §1, §2

[30] = target: T25, EGFRvIII amino acid residues 15 to 37 with Glu26 to Ala mutation (human); assay: yeast display flow cytometry, alanine scan
T25 construct: mutation is already in the entry
T25 peptide: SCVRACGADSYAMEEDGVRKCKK
From the text: as §1, §2

[31] = target: T26, EGFRvIII amino acid residues 15 to 37 with Arg33 to Ala mutation (human); assay: yeast display flow cytometry, alanine scan
T26 construct: mutation is already in the entry
T26 peptide: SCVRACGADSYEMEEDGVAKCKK
From the text: as §1, §2

[32] = target: T27, EGFRvIII amino acid residues 15 to 37 with Asp30 to Ala mutation (human); assay: yeast display flow cytometry, alanine scan
T27 construct: mutation is already in the entry
T27 peptide: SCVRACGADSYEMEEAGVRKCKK
From the text: as §1, §2

[33] = target: T16, EGFRvIII, full length, overexpressed on …; assay: flow cytometry dose-response on U87MG-EGFRvIII cells, apparent Kd
Method: Prior to analysis, cells were plated such that they were not more than 80% confluent on the day of analysis. Unless otherwise stated, all media are kept are 4° C. and all incubations are performed on wet ice. Cells were washed in PBS, harvested by the addition of cell dissociation buffer (Sigma), centrifuged and resuspended in complete medium at a cell density of 2×10⁶ cells/mL. Fifty μL/well of cells were distributed in a polypropylene v-bottom 96 well plate and serial 1/3 dilutions of purified mAbs starting at 100 nM were added and incubated for 2 hours. […] Cells were washed and re-suspended in medium containing Propidium iodide to exclude dead cells from analysis. Samples were filtered through a 60 μm nylon mesh filter plate (Millipore, Ireland) to remove cell aggregates. Flow cytometry analyses were performed on 2,000 viable single-cells events gated on forward scattering, side scattering parameters and propidium iodide dye exclusion using a BD-LSRFortessa flow cytometer (Becton-Dickinson Biosciences, CA, USA) and a standard filter set using BD FACSDiva™ acquisition software, according to manufacturer's instructions.
Specific detection of antibody binding was calculated as the mean fluorescent intensity of binding to each primary antibody after background level subtraction of the mean fluorescent intensity of binding of mouse IgG control. The data were analyzed with GraphPad Prism v 6.0 software using one-site specific binding with Hill slope non-linear regression curve fit model to determine Bmax (maximum specific binding) and Kdₐₚₚ (concentration needed to achieve a half-maximum binding at equilibrium) for each mAb tested.

B1: F263-4E11 (antibody, V domains shown)
VH: DVQLQESGPGLVKPSQSLSLTCTVTGYSITSDYAWNWIRQFPGNKLEWMGYIGYNGRTSYNPSLKSRISITRDTSKNQFFLQLNYVTTEDTATFYCARLGRGFAYWGQGTLVTVSA
VL: DILMTQSPSSMSVSLGDTVSITCHASQGINSNIGWLLQKPGKSFKGLIYHGTNLEDGVPSRFSGSGSGTDYSLTISSLESEDFADYYCVQYAQFPYTFGGGTKLEIK
notes: Mouse hybridoma mAb
- % of binding vs wild-type fragment 15-37 [1]: 191%
- % of binding vs wild-type fragment 15-37 [2]: 176%
- % of binding vs wild-type fragment 15-37 [3]: 148%
- % of binding vs wild-type fragment 15-37 [4]: 90.9%
- % of binding vs wild-type fragment 15-37 [5]: 110%
- % of binding vs wild-type fragment 15-37 [6]: 180%
- % of binding vs wild-type fragment 15-37 [7]: 30.4%
- % of binding vs wild-type fragment 15-37 [8]: 83.3%
- % of binding vs wild-type fragment 15-37 [9]: 102%
- % of binding vs wild-type fragment 15-37 [10]: 102%
- % of binding vs wild-type fragment 15-37 [11]: 130%
- % of binding vs wild-type fragment 15-37 [12]: 58.4%
- % of binding vs wild-type fragment 15-37 [13]: 75.3%
- % of binding vs wild-type fragment 15-37 [14]: 170%
- % of binding vs wild-type fragment 15-37 [15]: 94.9%
- % survival (DM1 secondary-conjugate ADC surrogate assay, vs mouse IgG) [16]: > 98%
- % survival (DM1 secondary-conjugate ADC surrogate assay, vs mouse IgG) [17]: 54%
- ELISA absorbance 405 nm [18]: 0.997 A405
- ELISA absorbance 405 nm [19]: 1.7 A405
- ELISA absorbance 405 nm [20]: 1.53 A405
- ELISA absorbance 405 nm [21]: 0.001 A405
- ELISA absorbance 405 nm [22]: 1.39 A405
- ELISA absorbance 405 nm [23]: 1.62 A405
- ELISA absorbance 405 nm [24]: 1.36 A405
- ELISA absorbance 405 nm [25]: 0.029 A405
- binding result [26]: binds
- binding result [27]: no binding (tested: 0-15% of wild-type binding)
- binding result [28]: no binding (tested: 0-15% of wild-type binding)
- binding result [29]: no binding (tested: 0-15% of wild-type binding)
- binding result [30]: no binding (tested: 0-15% of wild-type binding)
- binding result [31]: no binding (tested: 0-15% of wild-type binding)
- binding result [32]: no binding (tested: 0-15% of wild-type binding)
- Kd [33]: 6.7 nM
